# Patent US20220145295A1, “ENZYMATIC RNA SYNTHESIS” (President and Fellows of Harvard College, priority 2018, published 2022)
# B1: polymerase μ R387K: Human polymerase μ with point mutation R387K, expressed and purified; SEQ ID NO: 1 (protein, listed as Homo sapiens)
# chain: MLPKRRRARVGSPSGDAASSTPPSTRFPGVAIYLVEPRMGRSRRAFLTGLARSKGFRVLDACSSEATHVVMEETSAEEAVSWQERRMAAAPPGCTPPALLDISWLTESLGAGQPVPVECRHRLEVAGPRKGPLSPAWMPAYACQRPTPLTHHNTGLSEALEILAEAAGFEGSEGRLLTFCRAASVLKALPSPVTTLSQLQGLPHFGEHSSRVVQELLEHGVCEEVERVRRSERYQTMKLFTQIFGVGVKTADRWYREGLRTLDDLREQPQKLTQQQKAGLQHHQDLSTPVLRSDVDALQQVVEEAVGQALPGATVTLTGGFRRGKLQGHDVDFLITHPKEGQEAGLLPRVMCRLQDQGLILYHQHQHSCCESPTRLAQQSHMDAFEKSFCIFRLPQPPGAAVGGSTRPCPSWKAVRVDLVVAPVSQFPFALLGWTGSKLFQRELRRFSRKEKGLWLNSHGLFDPEQKTFFQAASEEDIFRHLGLEYLPPEQRNA
# Test system: poly dT-15-mer initiator oligonucleotide
# Assay: Initial activity screen of polymerase μ R387K with divalent cations (rate of ssDNA generation)
# Format: biochemical
# Conditions: 200 μM dNTP, 37° C.
# Description: FIGS. 3A to 3C. […] Denaturing gel electrophoresis analysis of dATP incorporation (FIG. 3B) and rATP incorporation (FIG. 3C) at nucleotide concentrations of 200-50 μM and 5.0-0.62 mM for dATP and rATP, respectively. These reactions were supplemented with 0.25 mM Mn^2+ and Mg^2+. The control reaction consisted of all reaction components except nucleotide. For all reactions, the initiator oligonucleotide was a HPLC-purified poly dT-15-mer.
# Human polymerase μ R387K was expressed and purified as described in the materials and methods. Because it was unknown under which reaction conditions polymerase μ R387K functioned optimally, several reaction parameters were initially evaluated. […] Thus, polymerase p R387K, a confirmed DNA/RNA-directed polymerase, is useful for controlled enzymatic RNA synthesis.
# Expressed proteins with terminal transferase activity were screened by determining the rate of RNA generation in terms of total RNA concentration and the length/distribution of RNA produced by the protein after incubation with natural rNTPs. […] The length of the RNA produced in these reactions was determined by comparing products to a 100-nt ssDNA ladder (Simplex Biosciences) using a 15% TBE-Urea denaturing gel (Thermo EC6885) following the manufacturer's protocol. […]
molecule,measurement,setting,value
B1,rate of ssDNA generation,"0.25 mM Co^2+, worst rate",~100 RFU/minute
same,rate of ssDNA generation,"combination of Mn^2+ and Mg^2+ at 0.25 mM, highest rate",~650 RFU/minute
